According to the supplement of paper PMC9112550, “Optimization of the antimicrobial peptide Bac7 by deep mutational scanning” (BMC Biology, 2022):

test system: Escherichia coli TOP10; test: shrunken log2 fold change of peptide-encoding DNA abundance (4.5 h post-induction vs induction); higher = less antimicrobial activity (less host growth inhibition); settings: time post-induction: 4.5 h; library: site-saturation at positions 5, 18, 19, 20
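Also: peptides expressed intracellularly from a pBAD plasmid library in pooled LB shake-flask culture, induced with 0.3% L-arabinose, DNA abundance read by NGS, three biological replicates, DESeq2 with apeglm shrinkage.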

Sequence	shrunken log2 fold change
RRIRERPPRLPRPRPRPYPVPRP	-0.224
RRIRWRPPRLPRPRPRPEMDPRP	0.7
RRIRTRPPRLPRPRPRPRKMPRP	-0.107
RRIRMRPPRLPRPRPRPLDWPRP	0.474
RRIRDRPPRLPRPRPRPWIWPRP	0.188
RRIRCRPPRLPRPRPRPELQPRP	0.251
RRIRGRPPRLPRPRPRPHDRPRP	-0.0826
RRIRWRPPRLPRPRPRPELNPRP	0.259
RRIRFRPPRLPRPRPRPCNKPRP	-0.249
RRIRVRPPRLPRPRPRPLLRPRP	0.0947
RRIRTRPPRLPRPRPRPGFGPRP	0.263
RRIRNRPPRLPRPRPRPGCTPRP	0.0156
RRIRCRPPRLPRPRPRPGEQPRP	0.262
RRIRERPPRLPRPRPRPICSPRP	-0.0316
RRIRQRPPRLPRPRPRPINYPRP	-0.0444
RRIRERPPRLPRPRPRPDQLPRP	-0.248
RRIRVRPPRLPRPRPRPKVVPRP	0.174
RRIRDRPPRLPRPRPRPPVRPRP	0.0542
RRIRERPPRLPRPRPRPLEPPRP	0.0736
RRIRGRPPRLPRPRPRPEQAPRP	1.83
RRIRTRPPRLPRPRPRPGMLPRP	-0.141
RRIRMRPPRLPRPRPRPECKPRP	0.0491
RRIRIRPPRLPRPRPRPKSPPRP	-0.0939
RRIRKRPPRLPRPRPRPCDDPRP	-0.0472
RRIRARPPRLPRPRPRPICWPRP	0.231

Sequence	shrunken log2 fold change
RRIRNRPPRLPRPRPRPTICPRP	-0.119
RRIRLRPPRLPRPRPRPVYHPRP	-0.856
RRIRYRPPRLPRPRPRPIFMPRP	-0.269
RRIRCRPPRLPRPRPRPAVNPRP	-0.386
RRIRIRPPRLPRPRPRPCTVPRP	-0.337
RRIRWRPPRLPRPRPRPENAPRP	0.275
RRIRFRPPRLPRPRPRPDYWPRP	-0.142
RRIRHRPPRLPRPRPRPWFMPRP	-0.474
RRIRLRPPRLPRPRPRPQLYPRP	-0.12
RRIRMRPPRLPRPRPRPYRHPRP	0.0311
RRIRLRPPRLPRPRPRPMSEPRP	-0.0383
RRIRMRPPRLPRPRPRPDNYPRP	-0.0552
RRIRQRPPRLPRPRPRPSKQPRP	-0.0831
RRIRTRPPRLPRPRPRPWMYPRP	-0.22
RRIRCRPPRLPRPRPRPHQRPRP	-0.422
RRIRQRPPRLPRPRPRPYGPPRP	-0.415
RRIRHRPPRLPRPRPRPVIKPRP	-0.0701
RRIRWRPPRLPRPRPRPQTCPRP	0.108
RRIRTRPPRLPRPRPRPIDYPRP	-0.231
RRIRDRPPRLPRPRPRPLNLPRP	-0.324
RRIRTRPPRLPRPRPRPPNTPRP	0.443
RRIRFRPPRLPRPRPRPKHTPRP	-0.0698
RRIRIRPPRLPRPRPRPLFFPRP	-0.374
RRIRFRPPRLPRPRPRPTMRPRP	0.605
RRIRHRPPRLPRPRPRPGSPPRP	-0.171

Sequence	shrunken log2 fold change
RRIRSRPPRLPRPRPRPGDEPRP	0.0674
RRIRGRPPRLPRPRPRPFNPPRP	-0.439
RRIRIRPPRLPRPRPRPGRWPRP	0.473
RRIRGRPPRLPRPRPRPFTRPRP	0.0912
RRIRHRPPRLPRPRPRPFVWPRP	-0.0616
RRIRWRPPRLPRPRPRPMSWPRP	0.0971
RRIRERPPRLPRPRPRPHAGPRP	0.0727
RRIRFRPPRLPRPRPRPDEAPRP	0.0246
RRIRARPPRLPRPRPRPMETPRP	-0.0508
RRIRGRPPRLPRPRPRPLVMPRP	0.263
RRIRRRPPRLPRPRPRPDPEPRP	0.307
RRIRHRPPRLPRPRPRPLPLPRP	0.0701
RRIRKRPPRLPRPRPRPLVDPRP	0.218
RRIRNRPPRLPRPRPRPSDMPRP	-0.117
RRIRIRPPRLPRPRPRPQYGPRP	0.0914
RRIRSRPPRLPRPRPRPPKTPRP	-0.0288
RRIRGRPPRLPRPRPRPCWVPRP	-0.00887
RRIRRRPPRLPRPRPRPPQDPRP	1.39
RRIRFRPPRLPRPRPRPCRCPRP	-0.735
RRIRPRPPRLPRPRPRPDGRPRP	0.101
RRIRARPPRLPRPRPRPRRFPRP	0.603
RRIRLRPPRLPRPRPRPNSTPRP	-0.294
RRIRPRPPRLPRPRPRPMYLPRP	-0.257
RRIRNRPPRLPRPRPRPGSMPRP	-0.225
RRIRNRPPRLPRPRPRPLMSPRP	-0.316

Sequence	shrunken log2 fold change
RRIRRRPPRLPRPRPRPQNWPRP	0.199
RRIRFRPPRLPRPRPRPIWIPRP	-0.234
RRIRRRPPRLPRPRPRPFGDPRP	-0.0397
RRIRERPPRLPRPRPRPHFVPRP	-0.0987
RRIRCRPPRLPRPRPRPFWLPRP	-0.227
RRIRERPPRLPRPRPRPGDVPRP	-0.159
RRIRARPPRLPRPRPRPNQDPRP	0.116
RRIRMRPPRLPRPRPRPNHCPRP	0.0039
RRIRQRPPRLPRPRPRPFFCPRP	0.111
RRIRCRPPRLPRPRPRPQMLPRP	0.0498
RRIRDRPPRLPRPRPRPYVDPRP	-0.0902
RRIRWRPPRLPRPRPRPPLEPRP	0.474
RRIRSRPPRLPRPRPRPDSHPRP	-0.36
RRIRRRPPRLPRPRPRPRADPRP	0.461
RRIRVRPPRLPRPRPRPQCPPRP	-0.0117
RRIRQRPPRLPRPRPRPIYKPRP	-0.12
RRIRQRPPRLPRPRPRPDDYPRP	0.0372
RRIRCRPPRLPRPRPRPCPPPRP	-0.0764
RRIRTRPPRLPRPRPRPENIPRP	-0.0809
RRIRRRPPRLPRPRPRPWKDPRP	-0.0442
RRIRDRPPRLPRPRPRPHLWPRP	0.611
RRIRHRPPRLPRPRPRPEWPPRP	0.228
RRIRRRPPRLPRPRPRPSLKPRP	0.108
RRIRQRPPRLPRPRPRPFMHPRP	-0.0117
RRIRFRPPRLPRPRPRPTLMPRP	0.0425

Sequence	shrunken log2 fold change
RRIRPRPPRLPRPRPRPHDPPRP	0.192
RRIRGRPPRLPRPRPRPNPSPRP	0.294
RRIRSRPPRLPRPRPRPDGGPRP	-0.125
RRIRARPPRLPRPRPRPQSCPRP	-0.0161
RRIRWRPPRLPRPRPRPSVFPRP	0.222
RRIRKRPPRLPRPRPRPGNNPRP	-0.107
RRIRERPPRLPRPRPRPHIEPRP	0.0737
RRIRCRPPRLPRPRPRPMDCPRP	-0.0376
RRIRPRPPRLPRPRPRPGWKPRP	0.269
RRIRYRPPRLPRPRPRPAPVPRP	0.125
RRIRTRPPRLPRPRPRPQYKPRP	-1.04
RRIRVRPPRLPRPRPRPGQCPRP	-0.0287
RRIRPRPPRLPRPRPRPLHEPRP	0.236
RRIRGRPPRLPRPRPRPRGSPRP	0.832
RRIRERPPRLPRPRPRPGCSPRP	-0.0673
RRIRRRPPRLPRPRPRPGNIPRP	-0.0618
RRIRPRPPRLPRPRPRPMYNPRP	-0.639
RRIRMRPPRLPRPRPRPFSPPRP	-0.189
RRIRWRPPRLPRPRPRPPDIPRP	0.238
RRIRVRPPRLPRPRPRPAWAPRP	0.255
RRIRDRPPRLPRPRPRPKSCPRP	-0.0117
RRIRKRPPRLPRPRPRPYSLPRP	-0.0434
RRIRFRPPRLPRPRPRPPSKPRP	-0.148
RRIRERPPRLPRPRPRPDVQPRP	-0.0408
RRIRHRPPRLPRPRPRPLGDPRP	0.146

Sequence	shrunken log2 fold change
RRIRLRPPRLPRPRPRPYWFPRP	-0.758
RRIRWRPPRLPRPRPRPPVAPRP	0.983
RRIRMRPPRLPRPRPRPAFSPRP	0.0185
RRIRRRPPRLPRPRPRPWRKPRP	0.302
RRIRSRPPRLPRPRPRPYWRPRP	-0.21
RRIRYRPPRLPRPRPRPTEVPRP	-0.016
RRIRKRPPRLPRPRPRPPPPPRP	1.23
RRIRTRPPRLPRPRPRPREHPRP	0.327
RRIRRRPPRLPRPRPRPCVIPRP	-0.0371
RRIRARPPRLPRPRPRPADHPRP	0.0196
RRIRWRPPRLPRPRPRPCTEPRP	-0.0149
RRIRERPPRLPRPRPRPHRFPRP	-0.169
RRIRPRPPRLPRPRPRPQASPRP	-0.137
RRIRSRPPRLPRPRPRPRTMPRP	0.108
RRIRTRPPRLPRPRPRPSIVPRP	-0.427
RRIRDRPPRLPRPRPRPVGCPRP	0.229
RRIRDRPPRLPRPRPRPHYFPRP	-0.119
RRIRYRPPRLPRPRPRPDSAPRP	-0.378
RRIRPRPPRLPRPRPRPIPTPRP	0.00223
RRIRGRPPRLPRPRPRPTRIPRP	0.901
RRIRARPPRLPRPRPRPDNMPRP	-0.45
RRIRFRPPRLPRPRPRPGKFPRP	0.138
RRIRHRPPRLPRPRPRPETKPRP	-0.0652
RRIRPRPPRLPRPRPRPHPCPRP	-0.105
RRIRVRPPRLPRPRPRPPVEPRP	0.424
